Laboratory results: patent US20200261603A1 (Astellas, published 2020)
Numbering of substitutions follows the chain as printed.

B1: P10-2 Fab (Fab, V domains shown)
VH: QVQLVQSGAEVKKPGASVKVSCKASGYTFTNYGLSWVRQAPGQGLEWMGENHPGSGIIYHNEKFRGRVTLTADRSTSTAYMELSSLRSEDTAVYYCARSSGTRGFDYWGQGTLVTVSS
VL: DVVMTQTPLSLSVTPGQPASISCRSSQSIVHSNGNTYLEWYLQKPGQSPQLLIYRVSNRFSGVPDRFSGSGSGTDFTLKISRVEAEDVGVYYCFQGSHGPWTFGQGTKLEIKR
modifications: heavy chain N-terminal glutamine was modified into pyroglutamic acid in a great majority of purified antibodies
notes: expressed in Expi293F cells; also called anti-human MUC1 antibody Fab fragment P10-2
B2: P10-1 Fab (Fab, V domains shown)
VH: B1 VH with D106A
VL: B1 VL
notes: expressed in Expi293F cells; also called anti-human MUC1 antibody Fab fragment P10-1
B3: P10-1 Fab Dye (Fab, V domains shown)
VH: B1 VH with D106A
VL: B1 VL
modifications: IRDye800CW (NHS ester) on Lys of the Fab fragment; number and positions not stated
notes: also called IRDye800CW-labeled P10-1 Fab
B4: mouse chimeric P10-2 IgG (antibody, V domains shown)
VH: B1 VH
VL: B1 VL
notes: Antibody in which the VH and VL domains of P10-2 Fab were fused with mouse IgG2a CH1 to CH3 domains and a mouse κ chain CL domain; not shown: mouse IgG2a CH1 to CH3 domains; mouse κ chain CL domain

Tests used:
[1] = target: T1, human cancer-specific MUC1 (human, UniProt P15941 24-1255, cancer-specific incomplete O-glycosylation (T, Tn, 2,3ST) of threonine at position 9 of the 20-amino acid tandem repeat … (SEQ ID NO: 15), as the background describes it); experiment: Cell ELISA on formalin-fixed T-47D cells, HRP anti-human Igκ, luminescence
T1 construct: whole, on cells; also called Mucin 1; human MUC1

[2] = target: T1, human cancer-specific MUC1; experiment: immunostaining of a human bladder cancer tissue array, 0.25 µg/mL primary antibody, Polymer-HRP/DAB

Binder	fold binding activity compared to 1B2 Fab [1]	also measured
B1	≥ 10 times (vs 1B2 Fab)	
B2	≥ 10 times (vs 1B2 Fab)	
B3		binding result [1]: binds
B4		binding result [2]: binds
